Data published in patent US20140161803A1, “CONSTITUTIVELY ACTIVE UPAR VARIANTS AND THEIR USE FOR THE GENERATION AND ISOLATION OF INHIBITORY ANTIBODIES” (IFOM Fondazione Istituo FIRC di Oncologia Molecolare, priority 2011, published 2014).

Target: wild-type human uPAR (human) (UniProt Q03405)
Assay: cell-based or functional assay

Chain of wild-type human uPAR (human) (Q03405 23-305): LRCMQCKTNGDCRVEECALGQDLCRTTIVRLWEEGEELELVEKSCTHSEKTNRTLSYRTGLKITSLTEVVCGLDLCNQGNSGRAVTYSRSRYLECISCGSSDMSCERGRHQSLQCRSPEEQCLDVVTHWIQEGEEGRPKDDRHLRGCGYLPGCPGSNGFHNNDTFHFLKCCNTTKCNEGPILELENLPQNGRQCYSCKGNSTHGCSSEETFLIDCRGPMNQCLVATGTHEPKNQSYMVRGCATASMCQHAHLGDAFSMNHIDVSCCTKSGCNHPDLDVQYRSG

Row | % max inhibition (pro-uPA pre-treat.) | % max inhibition (veh. pre-treat.) | IC50 (pro-uPA pre-treat.) | Substance
1 | 21% | 65% |  | R2 (antibody)
2 | 100% | 100% | 0.8 µM | Somatomedin B domain of VN (from UniProt P04004 20-63) (ligand)
